Experimental data taken from patent US20240301086A1 (APTEVO RESEARCH AND DEVELOPMENT, published 2024).
Changes are numbered by the printed parent chain.

T1: Full-length cynomolgus monkey PSMA (TSC308), on cells (cynomolgus monkey, UniProt Q04609 1-750 (human entry))
T1 construct: also called cyno PSMA; CHOK1SV/cynoPSMA
T1 chain: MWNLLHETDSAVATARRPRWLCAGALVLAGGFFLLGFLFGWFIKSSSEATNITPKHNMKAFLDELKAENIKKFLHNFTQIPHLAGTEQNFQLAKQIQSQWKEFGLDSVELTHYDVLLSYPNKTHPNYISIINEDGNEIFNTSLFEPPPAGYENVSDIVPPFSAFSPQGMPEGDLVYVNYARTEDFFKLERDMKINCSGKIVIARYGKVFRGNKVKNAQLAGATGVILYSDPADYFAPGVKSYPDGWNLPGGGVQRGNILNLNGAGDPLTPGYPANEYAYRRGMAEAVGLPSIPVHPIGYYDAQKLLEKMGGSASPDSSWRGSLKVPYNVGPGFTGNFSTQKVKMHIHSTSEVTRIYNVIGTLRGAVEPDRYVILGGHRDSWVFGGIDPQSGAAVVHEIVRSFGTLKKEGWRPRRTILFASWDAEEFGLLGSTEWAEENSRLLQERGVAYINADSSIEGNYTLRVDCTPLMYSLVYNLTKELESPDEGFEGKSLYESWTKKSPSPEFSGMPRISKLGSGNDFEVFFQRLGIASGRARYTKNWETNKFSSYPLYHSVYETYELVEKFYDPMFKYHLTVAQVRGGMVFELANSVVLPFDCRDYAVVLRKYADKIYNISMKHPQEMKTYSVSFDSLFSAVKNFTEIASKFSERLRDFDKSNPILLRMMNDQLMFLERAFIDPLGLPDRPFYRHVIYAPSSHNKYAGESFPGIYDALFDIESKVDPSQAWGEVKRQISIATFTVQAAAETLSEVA

B1: PSMA01019 Anti-PSMA scFv-Fc (Fc fusion)
chain: DVQITQSPSTLSASVGDRVTITCRASKSISKYLAWYQQKPGKAPKLLIHSGSSLESGVPSRFSGSGSGTEFTLTISSLQPDDFATYYCQQHIEYPWTFGQGTKVEIKGGGGSGGGGSGGGGSGGGGSEVQLLESGGGLVQPGGSLRLSCAASGYTFTDYYIHWVRQAPGKGLEWIGSFNPYNDYTSYADSVKGRATLSVDKSKNTAYLQMNSLRAEDTAVYYCARSDGYYDAMDYWGQGTLVTVSSSEPKSSDKTHTCPPCPAPEAAGAPSVFLFPPKPKDTLMISRTPEVTCVVVDVSHEDPEVKFNWYVDGVEVHNAKTKPREEQYNSTYRVVSVLTVLHQDWLNGKEYKCAVSNKALPAPIEKTISKAKGQPREPQVYTLPPSRDELTKNQVSLTCLVKGFYPSDIAVEWESNGQPENNYKTTPPVLDSDGSFFLYSKLTVDKSRWQQGNVFSCSVMHEALHNHYTQKSLSLSPGK
notes: Monospecific, bivalent scFv-Fc, VL-VH
B2: PSMA01020 Anti-PSMA scFv-Fc (Fc fusion)
chain: B1 chain with V2I, I4M
notes: as for B1
B3: PSMA01012 Anti-PSMA scFv-Fc (Fc fusion)
chain: DIQMTQSPSAMSASVGDRVTITCRASKSISKYLAWFQQKPGKVPKLRIHSGSTLQSGVPSRFSGSGSGTEFTLTISSLQPEDFATYYCQQHIEYPWTFGQGTKVEIKRGGGGSGGGGSGGGGSQVQLVQSGAEVKKPGASVKVSCKASGYTFTDYYMHWVRQAPGQGLEWMGYFNPYNDYTRYAQKFQGRVTMTRDTSISTAYMELSSLRSDDTAVYYCARSDGYYDAMDYWGQGTTVTVSSSEPKSSDKTHTCPPCPAPEAAGAPSVFLFPPKPKDTLMISRTPEVTCVVVDVSHEDPEVKFNWYVDGVEVHNAKTKPREEQYNSTYRVVSVLTVLHQDWLNGKEYKCAVSNKALPAPIEKTISKAKGQPREPQVYTLPPSRDELTKNQVSLTCLVKGFYPSDIAVEWESNGQPENNYKTTPPVLDSDGSFFLYSKLTVDKSRWQQGNVFSCSVMHEALHNHYTQKSLSLSPGK
notes: Monospecific, bivalent scFv-Fc, scFv in VL-VH orientation; also called parent construct
B4: PSMA01023 Anti PSMA scFv-Fc (Fc fusion)
chain: DIQMTQSPSTLSASVGDRVTITCRASKSISKYLAWYQQKPGKAPKLLIHSGSSLESGVPSRFSGSGSGTEFTLTISSLQPDDFATYYCQQHIEYPWTFGQGTKVEIKGGGGSGGGGSGGGGSGGGGSQVQLVQSGAEVKKPGASVKVSCKASGYTFTDYYMHWVRQAPGQGLEWMGYFNPYNDYTRYAQKFQGRVTMTRDTSTSTVYMELSSLRSEDTAVYYCARSDGYYDAMDYWGQGTTVTVSSSEPKSSDKTHTCPPCPAPEAAGAPSVFLFPPKPKDTLMISRTPEVTCVVVDVSHEDPEVKFNWYVDGVEVHNAKTKPREEQYNSTYRVVSVLTVLHQDWLNGKEYKCAVSNKALPAPIEKTISKAKGQPREPQVYTLPPSRDELTKNQVSLTCLVKGFYPSDIAVEWESNGQPENNYKTTPPVLDSDGSFFLYSKLTVDKSRWQQGNVFSCSVMHEALHNHYTQKSLSLSPGK
notes: Monospecific, bivalent scFv-Fc, VL-VH; Contains germlining set G11
B5: PSMA01025 Anti-PSMA scFv-Fc (Fc fusion)
chain: B4 chain with Y177I, R186S
notes: as for B1
B6: PSMA01024 Anti-PSMA scFv-Fc (Fc fusion)
chain: B4 chain with I2V, M4I, Y177I, R186S
notes: as for B1
B7: PSMA01021 Anti-PSMA scFv-Fc (Fc fusion)
chain: B4 chain with I2V, M4I, T203I, V206A, E216D
notes: as for B1
B8: PSMA01026 Anti PSMA scFv-Fc; Anti CD3 scFv-Fc (bispecific antibody)
chain 1: DIQMTQSPSTLSASVGDRVTITCRASKSISKYLAWYQQKPGKAPKLLIHSGSSLESGVPSRFSGSGSGTEFTLTISSLQPDDFATYYCQQHIEYPWTFGQGTKVEIKGGGGSGGGGSGGGGSGGGGSQVQLVQSGAEVKKPGASVKVSCKASGYTFTDYYMHWVRQAPGQGLEWMGYFNPYNDYTRYAQKFQGRVTMTRDTSTSTVYMELSSLRSEDTAVYYCARSDGYYDAMDYWGQGTTVTVEPKSSDKTHTCPPCPAPPAAAPSVFLFPPKPKDTLMISRTPEVTCVVVDVSHEDPEVKFNWYVDGVEVHNAKTKPREEQYNSTYRVVSVLTVLHQDWLNGKEYKCAVSNKALPAPIEKTISKAKGQPREPQVYTLPPSRDELTKNQVSLWCLVKGFYPSDIAVEWESNGQPENNYKTTPPVLDSDGSFFLYSKLTVDKSRWQQGNVFSCSVMHEALHNHYTQKSLSLSPG
chain 2: QVQLVQSGAEVKKPGASVKVSCKASGYTFTRSTMHWVRQAPGQGLEWIGYINPSSAYTNYAQKFQGRVTLTADKSTSTAYMELSSLRSEDTAVYYCASPQVHYDYNGFPYWGQGTLVTVSSGGGGSGGGGSGGGGSGGGGSDIQMTQSPSSLSASVGDRVTITCRASSSVSYMNWYQQKPGKAPKRWIYDSSKLASGVPSRFSGSGSGTDFTLTISSLQPEDFATYYCQQWSRNPPTFGQGTKVEIKEPKSSDKTHTCPPCPAPPAAAPSVFLFPPKPKDTLMISRTPEVTCVVVDVSHEDPEVKFNWYVDGVEVHNAKTKPREEQYNSTYRVVSVLTVLHQDWLNGKEYKCAVSNKALPAPIEKTISKAKGQPREPQVYTLPPSRDELTKNQVSLSCAVKGFYPSDIAVEWESNGQPENNYKTTPPVLDSDGSFFLVSKLTVDKSRWQQGNVFSCSVMHEALHNRFTQKSLSLSPG

Molecular target: T1, Full-length cynomolgus monkey PSMA …
Assay: cell binding on CHOK1SV/cynoPSMA transfectants, MSD electrochemiluminescence (ECL), SULFO-TAG goat anti-human IgG
Procedure: (§1) To measure the relative binding activity of humanized PSMA-binding domain variants, constructs were tested in cell binding assays on CHOK1SV cells transfected with human or cynomolgus PSMA. The generation of CHOK1SV/huPSMA cells was described earlier; CHOK1SV/cynoPSMA cells were generated using the same method. Bivalent PSMA-binding domains variants in scFv-Fc format (constructs PSMA01019, PSMA01020, PSMA01021, PSMA01023, PSMA01024 and PSMA01025) were tested in these assays.
(§2) Binding studies on CHOK1SV transfectants were performed in live cell-based ELISA using electrochemiluminescence (Meso Scale Discovery). CHOK1SV cells were washed and seeded at 50,000 cells/well in 1× Hank's Balanced Salt Solution (HBSS) on 96-well Multi-Array High Bind plates (Meso Scale Discovery) and incubated at 37° C. for one hour. Following a blocking step in PBS buffer with 20% FBS, serial dilutions of PSMA-binding constructs (from 0.002 to 100 nM) were added in PBS buffer with 10% FBS and incubated at room temperature for one hour. Plates were washed with PBS and the specific binding levels were detected by SULFO TAG-labeled goat anti-human IgG antibody (Meso Scale Discovery #R32AJ). Following an hour incubation and wash steps, 150 μL/well surfactant free 1× Read Buffer T were added and samples were analyzed on MSD Sector Imager (Meso Scale Discovery). Resulting electrochemiluminescence (ECL) values versus concentrations were plotted and nonlinear regression analysis to determine EC50 values was performed in GraphPad Prism 7® graphing and statistics software.

| Binder | EC50 [nM] |
| --- | --- |
| B1 | 8 |
| B2 | 8 |
| B3 | 8 |
| B4 | 5 |
| B5 | 10 |
| B6 | 9 |
| B7 | 6 |

The binders below were run against T2, Human PSMA ECD-AFH (TSC033), recombinant dimeric PSMA ECD (human, UniProt Q04609 44-750) (assay: SPR (Biacore T200), scFv-Fc captured on anti-human IgG, dimeric PSMA ECD as analyte, 1:1 fit).
T2 construct: SEC-purified dimer; also called HuPSMA-AFH; Avi-His-Human PSMA ECD
T2 sequence (Q04609 other isoform, or with tags, fused parts or gaps): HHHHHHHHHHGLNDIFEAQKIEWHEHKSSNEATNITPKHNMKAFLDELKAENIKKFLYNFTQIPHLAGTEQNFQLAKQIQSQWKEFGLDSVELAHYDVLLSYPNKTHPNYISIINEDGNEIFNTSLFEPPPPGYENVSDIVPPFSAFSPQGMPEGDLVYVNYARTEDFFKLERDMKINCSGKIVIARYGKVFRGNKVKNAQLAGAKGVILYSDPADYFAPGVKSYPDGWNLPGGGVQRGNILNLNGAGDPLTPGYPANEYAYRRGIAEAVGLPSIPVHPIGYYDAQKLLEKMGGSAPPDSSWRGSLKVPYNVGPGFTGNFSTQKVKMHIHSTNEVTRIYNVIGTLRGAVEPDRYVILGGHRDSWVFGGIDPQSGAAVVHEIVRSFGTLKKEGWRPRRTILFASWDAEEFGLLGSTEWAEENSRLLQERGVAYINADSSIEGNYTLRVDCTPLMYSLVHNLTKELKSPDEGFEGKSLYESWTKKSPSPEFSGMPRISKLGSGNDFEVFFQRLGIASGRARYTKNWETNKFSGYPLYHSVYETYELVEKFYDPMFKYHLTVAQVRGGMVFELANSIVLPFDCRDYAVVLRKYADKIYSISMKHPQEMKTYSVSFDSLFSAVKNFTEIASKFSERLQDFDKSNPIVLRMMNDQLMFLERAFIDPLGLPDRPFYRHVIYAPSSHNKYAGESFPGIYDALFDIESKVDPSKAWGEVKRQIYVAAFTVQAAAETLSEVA
Procedure: Mouse anti-human IgG (GE, BR-1008-39) at 25 μg/ml in 10 mM sodium acetate pH 5.0 was immobilized at a density of ˜2,000-4,000 response units (RU) onto each flow cell of a CM5 research-grade sensor chip (GE) by standard amine coupling chemistry. Each anti-PSMA protein at approximately 40 nM in dPBS with 0.2% BSA buffer was captured in a flow cell with the immobilized anti-human IgG at a flow rate of […] for up to 30 seconds, leaving one flow cell surface unmodified as the reference. Using a multi-cycle kinetics mode, a buffer blank and […] different concentrations of ECD ranging from 1 nM to 243 nM were sequentially injected through each flow cell at 30 μL/min with association times varying from 300-600 seconds and dissociation times varying from 600-1200 seconds. Regeneration was achieved by injection of 3 M MgCl₂ at a flow rate of 30 μL/min for up to 40 seconds followed by dPBS with 0.2% BSA buffer stabilization for 1 min.
Sensorgrams obtained from kinetic SPR measurements were analyzed using the double subtraction method. The signal from the reference flow cell was subtracted from the analyte binding response obtained from flow cells with captured ligands. The buffer blank response was then subtracted from analyte binding responses and the final double-referenced data were analyzed with Biacore T200 Evaluation software (2.0, GE), globally fitting data to derive kinetic parameters. All sensorgrams were fitted using a simple one-to-one binding model.

| Binder | Kd [nM] | koff [s⁻¹] | kon [M⁻¹ s⁻¹] |
| --- | --- | --- | --- |
| B1 | 15 | 0.00019 | 13000 |
| B2 | 16 | 0.00019 | 12000 |
| B3 | 40 | 0.0011 | 27000 |
| B4 | 40 | 0.00018 | 4500 |
| B5 | 271 | 0.011 | 40000 |
| B6 | 299 | 0.0026 | 8500 |
| B7 | 18 | 0.00017 | 9400 |

What follows are binders tested against T3, Full-length Human PSMA (TSC435), on cells (human, UniProt Q04609 1-750) (assay: cell binding on CHOK1SV/humanPSMA transfectants, MSD electrochemiluminescence (ECL), SULFO-TAG goat anti-human IgG).
T3 construct: also called CHOK1SV/huPSMA; PSMA on C4-2B, 22RV1, LNCaP, MDA-PCa-2b cells
Procedure: as §1, §2

| Binder | EC50 [nM] |
| --- | --- |
| B1 | 4 |
| B2 | 4 |
| B3 | 6 |
| B4 | 1 |
| B5 | 11 |
| B6 | 12 |
| B7 | 2 |

What follows are binders tested against T3, Full-length Human PSMA (TSC435), on … (assay: flow cytometry on C4-2B cells, PE goat anti-human IgG Fc secondary, MFI (median)).

| Binder | EC50 [nM] |
| --- | --- |
| B8 | 23 |

These binders were tested against T4, human CD3ε in the TCR/CD3 complex on Jurkat cells (human, UniProt P07766 23-207) (assay: flow cytometry on Jurkat cells, PE goat anti-human IgG Fc secondary, MFI (median)).
T4 construct: whole, on cells; On the cells it stands in the whole TCR/CD3 complex; also called CD3 (+) cells; CD3-expressing Jurkat cells
T4 sequence (P07766 23-207, one chain of several): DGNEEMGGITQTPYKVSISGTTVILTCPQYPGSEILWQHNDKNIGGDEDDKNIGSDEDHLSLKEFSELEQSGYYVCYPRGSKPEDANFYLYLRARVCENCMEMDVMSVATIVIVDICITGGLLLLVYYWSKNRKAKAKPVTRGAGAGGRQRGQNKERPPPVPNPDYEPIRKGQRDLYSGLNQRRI

| Binder | EC50 [nM] |
| --- | --- |
| B8 | 26 |
